The values below come from patent US12134788B2, “Engineered prephenate dehydrogenases and arogenate dehydrogenases and methods of using the same” (Wisconsin Alumni Research Foundation, priority 2017, dated 2024).

Common to all, as to conditions: other: 0.5 mM NADP^+, pH 7.6, 37° C.
Substrate in data set [1]: O=C(O)C(=O)CC1(C(=O)O)C=CC(O)C=C1
Nature of the data set: ADH and PDH assay: steady-state kinetics and Tyr inhibition, MtncADH D220C. Type of data set: biochemical, Medicago truncatula. As for the experimental part: (§1) Kinetic parameters of purified recombinant proteins were determined from assays conducted at varying arogenate (19.5 μM-5 mM) and prephenate concentration (23.4 μM-6 mM). Standard assay conditions were 25 mM HEPES pH 7.6, 50 mM KCl and 10% (v/v) ethylene glycol, and 0.5 mM NADP^+ with varied substrate, concentrations. Reactions were initiated by addition of enzyme and incubated at 37° C. monitored every 10-15 seconds at […] using a microplate reader (Tecan Genios). Kinetic parameters were determined by fitting initial velocity data to the Michaelis-Menten equation using the Origin software (OriginLab).
(§2) Arogenate was prepared by enzymatic conversion of prephenate (Sigma-Aldrich) as previously reported^56. For Tyr inhibition assays, Tyr was dissolved in a slightly basic solution (0.025 N NaOH) due to solubility issues, thus the concentration of lysis buffer was increased to 500 mM HEPES final concentration to buffer against the changes by addition of Tyr in the reaction. Reactions containing varying amounts of Tyr (10 μM-8 mM) with 0.5 mM NADP^+ and either 1 mM arogenate or 0.8 mM prephenate were monitored as above.

Substrate in data set [2]: N[C@@H](CC1(C(=O)O)C=CC(O)C=C1)C(=O)O
The description is as above. Type of data set: biochemical, Medicago truncatula. The protocol:
as §1, §2

Substrate in data set [3]: O=C(O)C(=O)CC1(C(=O)O)C=CC(O)C=C1
Kind of data set: ADH and PDH assay: steady-state kinetics and Tyr inhibition, SolyncADH D224N. It counts as biochemical, Solanum lycopersicum (tomato). As for the experimental part: as §1, §2

Substrate in data set [4]: N[C@@H](CC1(C(=O)O)C=CC(O)C=C1)C(=O)O
Described as above. It counts as biochemical, Solanum lycopersicum (tomato). The protocol:
as §1, §2

Substrate in data set [5]: O=C(O)C(=O)CC1(C(=O)O)C=CC(O)C=C1
Kind of data set: ADH and PDH assay: steady-state kinetics and Tyr inhibition, GmncADH D218N. It counts as biochemical, Glycine max (soybean). As for the experimental part: as §1, §2

Substrate in data set [6]: N[C@@H](CC1(C(=O)O)C=CC(O)C=C1)C(=O)O
The description is as above. Type of data set: biochemical, Glycine max (soybean). The protocol:
as §1, §2

Substrate in data set [7]: O=C(O)C(=O)CC1(C(=O)O)C=CC(O)C=C1
Kind of data set: ADH and PDH assay: steady-state kinetics and Tyr inhibition, MtPDH wild type. Type of data set: biochemical, Medicago truncatula. The protocol:
as §1
(§3) Arogenate was prepared by enzymatic conversion of prephenate (Sigma-Aldrich) as previously reported^56. For Tyr inhibition assays, Tyr was dissolved in a slightly basic solution (0.025 N NaOH) due to solubility issues, thus the concentration of lysis buffer was increased to 500 mM HEPES final concentration to buffer against the changes by addition of Tyr in the reaction. […]

Substrate in data set [8]: N[C@@H](CC1(C(=O)O)C=CC(O)C=C1)C(=O)O
The description is as above. It counts as biochemical, Medicago truncatula. As for the experimental part:
as §1, §3

Substrate in data set [9]: O=C(O)C(=O)CC1(C(=O)O)C=CC(O)C=C1
Kind of data set: ADH and PDH assay: steady-state kinetics and Tyr inhibition, MtPDH C220D. It counts as biochemical, Medicago truncatula. As for the experimental part: as §1, §2

Substrate in data set [10]: N[C@@H](CC1(C(=O)O)C=CC(O)C=C1)C(=O)O
The description is as above. Type of data set: biochemical, Medicago truncatula. As for the experimental part:
as §1, §2

Substrate in data set [11]: O=C(O)C(=O)CC1(C(=O)O)C=CC(O)C=C1
Kind of data set: ADH and PDH assay: steady-state kinetics and Tyr inhibition, GmPDH1 N222D. It counts as biochemical, Glycine max (soybean). As for the experimental part:
as §1, §2

Substrate in data set [12]: N[C@@H](CC1(C(=O)O)C=CC(O)C=C1)C(=O)O
The description is as above. It counts as biochemical, Glycine max (soybean). The protocol: as §1, §2

Substrate in data set [13]: O=C(O)C(=O)CC1(C(=O)O)C=CC(O)C=C1
Kind of data set: ADH and PDH assay: steady-state kinetics and Tyr inhibition, GmPDH1 M219T/N222D. Type of data set: biochemical, Glycine max (soybean). The protocol:
as §1, §2

Substrate in data set [14]: N[C@@H](CC1(C(=O)O)C=CC(O)C=C1)C(=O)O
Described as above. Type of data set: biochemical, Glycine max (soybean). As for the experimental part:
as §1, §2

Substrate in data set [15]: O=C(O)C(=O)CC1(C(=O)O)C=CC(O)C=C1
Nature of the data set: ADH and PDH assay: steady-state kinetics and Tyr inhibition, GmPDH1 M219T. It counts as biochemical, Glycine max (soybean). The protocol:
as §1, §2

Substrate in data set [16]: N[C@@H](CC1(C(=O)O)C=CC(O)C=C1)C(=O)O
The data set is described as above. Type of data set: biochemical, Glycine max (soybean). As for the experimental part:
as §1, §2

Substrate in data set [17]: O=C(O)C(=O)CC1(C(=O)O)C=CC(O)C=C1
Nature of the data set: ADH and PDH assay: steady-state kinetics and Tyr inhibition, GmPDH1 N222A. Type of data set: biochemical, Glycine max (soybean). As for the experimental part: as §1, §2

By Km is commonly meant the concentration of substrate that gives half-maximal velocity. The term kcat denotes the number of substrate molecules converted per active site and unit of time at saturation. The kcat/Km is the turnover number divided by the Michaelis constant.

B1: Medicago truncatula MtncADH variant D220C, SEQ ID NO: 10 (Medicago truncatula; D220C) (protein)
chain: MSNSPSLKIGIVGFGSFGQFLAKTMIKQGHTLTATSRTDYSHTCLQLGIQFFRDVGTFIEANNDVILICTSIMSFTKVLSSMPLACLKKPTTLFVDVLSVKEHPREVLLRVLPEESDILCTHPMFGPESGKNGWKDLNFMYDKVRIHDEATCSNFLHIFASEGCKMLQMSCEEHDKIAAKSQFITHTIGRTLAEMDIESTPIDTKGFQTLTQLKNTTMRCSFDLYSGLFVHNRFAKQELENLQRALDRVKEMLVQRMREELGPEKD
notes: D220C by site-directed mutagenesis
As to B1, in [1], the Km is 740 ± 30 µM, the kcat worked out at 10.1 ± 0.5 s⁻¹ and the kcat/Km is 13600 M⁻¹ s⁻¹. For the same protein, in data set [2], the Km amounted to 870 ± 30 µM, the kcat amounted to 7 ± 0.8 s⁻¹ and the kcat/Km was found to be 8050 M⁻¹ s⁻¹.

B2: Solanum lycopersicum SolyncADH variant D224N (Solanum lycopersicum; D224N) (protein)
chain: MSSSSSCQPKTLRIGIIGFGPFAQFLAKTMMKQGHCIHVTSRSDYSELCTDLGILFFRDMGAFLESDNEVIMISTSILSLSQVVESIPFNCLKRPTLFVDVLSVKEHPKDVLLRMMPRECDLLCTHPMFGPESGKDGWEDLTFMYDMVRIRDQPLCSSFLHIFSSEGCKMLEMTCEKHDRLAAQSQFLTHTIGRILSEMEVEPTPIDTKGFQKLVQVKESSVKNSFDLFSGLFIHNRFARQQMKNLEVALEKTKEKLQERSKELQDPIISKF
notes: D224N by site-directed mutagenesis
On to B2, for which, in [3], the Km is 2310 ± 100 µM, the kcat amounted to 2.4 ± 1 s⁻¹ and the kcat/Km worked out at 1040 M⁻¹ s⁻¹. Besides, in [4], the Km turned out to be 1340 ± 480 µM, the kcat stood at 11.7 ± 0.2 s⁻¹ and the kcat/Km was determined as 8730 M⁻¹ s⁻¹.

B3: Glycine max GmncADH variant D218N (Glycine max; D218N) (protein)
chain: MSTWSLKIGVVGFGSFGQFLAKTMIKQGHTLRATSRTDYSLLCLPMGIQFFRDVAAFLEADNDVILVCTSILSLSEVLSSMPLTCLKRSTLFVDVLSVKEHPRNLLIKVLPEESDILCTHPMFGPDSGKDGWQDLTFVYDKVRIRDEAICSSFLHIFASEGCRMLQMSCEEHDKIAAKSQFITHTIGRTLAEMDIKSTPIDTKGFHSLVQLKDTTIRNSFDLYSGLFLHNRFAVQELENLEHALHKVKEMLVQRKSEELGLEKTEC
notes: D218N by site-directed mutagenesis
With B3, in data set [5], the Km was found to be 1980 ± 50 µM, the kcat turned out to be 11.5 ± 0.5 s⁻¹ and the kcat/Km worked out at 5810 M⁻¹ s⁻¹. For the same protein, in [6], the Km was determined as 740 ± 140 µM, the kcat is 8.6 ± 0.2 s⁻¹ and the kcat/Km was found to be 11600 M⁻¹ s⁻¹.

B4: MtPDH (MtPDH1; Mt3g071980), Medicago truncatula prephenate dehydrogenase, wild type (Medicago truncatula) (protein)
chain: MSSSSKSLKIGIVGFGTFGQFLANTMIKQGHTLTATSRTDYSQLCDQMGIHFFRDITAFLDADMDVILLCTSISSLSEVVGSMPLACLKRPTLFVDVLSVKEHPKNLLLKVLPEESDILCTHPMFGPVSGKNGWQNLTFMFDKVRIKDEVTCSKFLQIFASEGCKMVEMSCEEHDKAAAKSQFITHTIGRTLAEMDIKSTPIDTKGFQTLVELKKPVMGCSFDLYSGLFVYNRFARQELENLEHALHKVKEMLVQRIDEGQNPERTES
As for B4, in data set [7], the Km came to 50 ± 10 µM, the kcat is 18.5 ± 3 s⁻¹ and the kcat/Km is 370000 M⁻¹ s⁻¹. Also, in data set [8], the Km is 940 ± 40 µM, the catalytic constant (kcat) came to 16.9 ± 1.1 s⁻¹ and the kcat/Km turned out to be 18000 M⁻¹ s⁻¹.

B5: Medicago truncatula MtPDH variant C220D, SEQ ID NO: 1 (Medicago truncatula; C220D) (protein)
chain: MSSSSKSLKIGIVGFGTFGQFLANTMIKQGHTLTATSRTDYSQLCDQMGIHFFRDITAFLDADMDVILLCTSISSLSEVVGSMPLACLKRPTLFVDVLSVKEHPKNLLLKVLPEESDILCTHPMFGPVSGKNGWQNLTFMFDKVRIKDEVTCSKFLQIFASEGCKMVEMSCEEHDKAAAKSQFITHTIGRTLAEMDIKSTPIDTKGFQTLVELKKPVMGDSFDLYSGLFVYNRFARQELENLEHALHKVKEMLVQRIDEGQNPERTES
As for B5, in [9], the Km was 1530 ± 90 µM, the kcat came to 0.5 ± 0.1 s⁻¹ and the kcat/Km came to 327 M⁻¹ s⁻¹. Also, in data set [10], the Km amounted to 270 ± 10 µM, the kcat worked out at 46.8 ± 4.2 s⁻¹ and the kcat/Km was 173000 M⁻¹ s⁻¹.

B6: Glycine max GmPDH1 variant N222D, SEQ ID NO: 2 (Glycine max; N222D) (protein)
chain: MSTSSSSQSLKIGIVGFGNFGQFLAKTMIKQGHTLTATSRSDYSELCLQMGIHFFRDVSAFLTADIDVIVLCTSILSLSEVVGSMPLTSLKRPTLFVDVLSVKEHPRELLLRELPEDSDILCTHPMFGPQTAKNGWTDHTFMYDKVRIRDEVICSNFIQIFATEGCKMVQMSCEEHDRAAAKSQFITHTIGRTLGEMDIQSTPIDTKGFETLVKLKETMMRDSFDLYSGLFVYNRFARQELENLEHALHKVKETLMIQRTNGEQGHKRTES
Take B6: in data set [11], the Km was 7580 ± 1130 µM, the kcat was determined as 19.1 ± 1.4 s⁻¹ and the kcat/Km is 2520 M⁻¹ s⁻¹. In addition, in data set [12], the Km worked out at 530 ± 180 µM, the kcat is 27.8 ± 3.5 s⁻¹ and the kcat/Km was 52400 M⁻¹ s⁻¹.

B7: Glycine max GmPDH1 variant M219T/N222D (Glycine max; M219T/N222D) (protein)
chain: MSTSSSSQSLKIGIVGFGNFGQFLAKTMIKQGHTLTATSRSDYSELCLQMGIHFFRDVSAFLTADIDVIVLCTSILSLSEVVGSMPLTSLKRPTLFVDVLSVKEHPRELLLRELPEDSDILCTHPMFGPQTAKNGWTDHTFMYDKVRIRDEVICSNFIQIFATEGCKMVQMSCEEHDRAAAKSQFITHTIGRTLGEMDIQSTPIDTKGFETLVKLKETTMRDSFDLYSGLFVYNRFARQELENLEHALHKVKETLMIQRTNGEQGHKRTES
For B7, in data set [13], the Km was found to be 1180 ± 120 µM, the kcat came to 2.5 ± 0.3 s⁻¹ and the kcat/Km came to 2120 M⁻¹ s⁻¹. Also, in data set [14], the Km amounted to 630 ± 180 µM, the kcat worked out at 29 ± 4.4 s⁻¹ and the kcat/Km is 46000 M⁻¹ s⁻¹.

B8: Glycine max GmPDH1 variant M219T (Glycine max; M219T) (protein)
chain: MSTSSSSQSLKIGIVGFGNFGQFLAKTMIKQGHTLTATSRSDYSELCLQMGIHFFRDVSAFLTADIDVIVLCTSILSLSEVVGSMPLTSLKRPTLFVDVLSVKEHPRELLLRELPEDSDILCTHPMFGPQTAKNGWTDHTFMYDKVRIRDEVICSNFIQIFATEGCKMVQMSCEEHDRAAAKSQFITHTIGRTLGEMDIQSTPIDTKGFETLVKLKETTMRNSFDLYSGLFVYNRFARQELENLEHALHKVKETLMIQRTNGEQGHKRTES
Consider B8, for which, in data set [15], the Michaelis-Menten constant (Km) worked out at 100 ± 20 µM, the kcat worked out at 30.3 ± 0.8 s⁻¹ and the kcat/Km came out at 303000 M⁻¹ s⁻¹. In data set [16], the Michaelis-Menten constant (Km) was found to be 1550 ± 140 µM, the kcat amounted to 4.6 ± 0.3 s⁻¹ and the catalytic efficiency (kcat/Km) was determined as 2970 M⁻¹ s⁻¹.

B9: Glycine max GmPDH1 variant N222A (Glycine max; N222A) (protein)
chain: MSTSSSSQSLKIGIVGFGNFGQFLAKTMIKQGHTLTATSRSDYSELCLQMGIHFFRDVSAFLTADIDVIVLCTSILSLSEVVGSMPLTSLKRPTLFVDVLSVKEHPRELLLRELPEDSDILCTHPMFGPQTAKNGWTDHTFMYDKVRIRDEVICSNFIQIFATEGCKMVQMSCEEHDRAAAKSQFITHTIGRTLGEMDIQSTPIDTKGFETLVKLKETMMRASFDLYSGLFVYNRFARQELENLEHALHKVKETLMIQRTNGEQGHKRTES
As for B9, in data set [17], the Km came out at 190 ± 40 µM, the kcat is 6.6 ± 0.3 s⁻¹ and the kcat/Km worked out at 34700 M⁻¹ s⁻¹.
